The source of these data is patent US20210238260A1 (published 2021).

The target of this assay is Factor X (FX) (UniProt P00742 41-488). Briefly: cell-based or functional assay.

B1: FIXa-R318Y/R338E/T343R (enzyme)
chain 1: YNSGKLEEFVQGNLERECMEEKCSFEEAREVFENTERTTEFWKQYVDGDQCESNPCLNGGSCKDDINSYECWCPFGFEGKNCELDVTCNIKNGRCEQFCKNSADNKVVCSCTEGYRLAENQKSCEPAVPFPCGRVSVSQTSKLTR
chain 2: VVGGEDAKPGQFPWQVVLNGKVDAFCGGSIVNEKWIVTAAHCVETGVKITVVAGEHNIEETEHTEQKRNVIRIIPHHNYNAAINKYNHDIALLELDEPLVLNSYVTPICIADKEYTNIFLKFGSGYVSGWGRVFHKGYSALVLQYLRVPLVDRATCLESTKFRIYNNMFCAGFHEGGRDSCQGDSGGPHVTEVEGTSFLTGIISWGEECAMKGKYGIYTKVSRYVNWIKEKTKLT
Take B1: the “Factor X activation, fold over wild-type or BeneFIX FIX” value was approximately 2.5 fold.
